Assay results reported in publication PMC12098869, “An mRNA-display derived cyclic peptide scaffold reveals the substrate binding interactions of an N-terminal cysteine oxidase” (Nature Communications, 2025).
Where a chain is given by its changes, count along the chain named.

What was measured:
Experiment in all cases: SPR; multi-cycle, equilibrium steady state affinity 1:1 binding model; biotinylated ADO or variant immobilised on a Biotin CAP chip (~2500-3000 RU), peptide injected; 4 °C; 20 mM HEPES pH 7.5, 500 mM NaCl, 10 mM DTT, 0.1% (v/v) tween-20; 50 μL/minute
Conditions in all cases: both partners purified
[1] = biological target: T1, ADO-F101A, biotinylated (pQE80L-Navi-ADO) (human, UniProt Q96SZ5 1-270, F101A, biotin on the Avi tag)
T1 construct: Tag as in Dm1; source: E. coli Rosetta2(DE3), purified (Ni-NTA, SEC); not shown: Avi tag, N-terminal, kept; His6, N-terminal, kept
T1 sequence (looked up): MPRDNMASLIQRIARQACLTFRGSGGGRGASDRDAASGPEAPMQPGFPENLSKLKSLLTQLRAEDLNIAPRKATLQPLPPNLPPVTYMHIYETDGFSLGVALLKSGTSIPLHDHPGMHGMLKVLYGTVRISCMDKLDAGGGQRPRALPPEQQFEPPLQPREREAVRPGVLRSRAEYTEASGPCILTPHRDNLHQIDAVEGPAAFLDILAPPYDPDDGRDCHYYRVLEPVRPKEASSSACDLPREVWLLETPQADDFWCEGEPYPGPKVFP
How it was run: (§1)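 Biotinylated full-length human ADO (wild type or engineered forms) was made in E. coli with a His tag, then purified by nickel affinity and gel filtration. It was captured on a Biotin CAP chip at about 2500–3000 RU in a Biacore T200, and peptides were flowed over it. The run was at 4 °C in HEPES pH 7.5 buffer with 500 mM NaCl, DTT and tween-20, at 50 μL/minute. Kd came from a 1:1 steady-state fit of multi-cycle equilibrium responses.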

[2] = biological target: T2, ADO-Y212F, biotinylated (pQE80L-Navi-ADO) (human, UniProt Q96SZ5 1-270, Y212F, biotin on the Avi tag)
T2 construct: Tag as in Dm1; source: E. coli Rosetta2(DE3), purified (Ni-NTA, SEC); not shown: Avi tag, N-terminal, kept; His6, N-terminal, kept
T2 sequence (looked up): T1 sequence (looked up) with A101F, Y212F
How it was run: as §1

[3] = biological target: T3, ADO-Y87A, biotinylated (pQE80L-Navi-ADO) (human, UniProt Q96SZ5 1-270, Y87A, biotin on the Avi tag)
T3 construct: Tag as in Dm1; source: E. coli Rosetta2(DE3), purified (Ni-NTA, SEC); not shown: Avi tag, N-terminal, kept; His6, N-terminal, kept
T3 sequence (looked up): T1 sequence (looked up) with Y87A, A101F
How it was run: as §1

[4] = biological target: T4, ADO-Y87F, biotinylated (pQE80L-Navi-ADO) (human, UniProt Q96SZ5 1-270, Y87F, biotin on the Avi tag)
T4 construct: Tag as in Dm1; source: E. coli Rosetta2(DE3), purified (Ni-NTA, SEC); not shown: Avi tag, N-terminal, kept; His6, N-terminal, kept
T4 sequence (looked up): T1 sequence (looked up) with Y87F, A101F
How it was run: as §1

[5] = biological target: T5, ADO-Y212A, biotinylated (pQE80L-Navi-ADO) (human, UniProt Q96SZ5 1-270, Y212A, biotin on the Avi tag)
T5 construct: Tag as in Dm1; source: E. coli Rosetta2(DE3), purified (Ni-NTA, SEC); not shown: Avi tag, N-terminal, kept; His6, N-terminal, kept
T5 sequence (looked up): T1 sequence (looked up) with A101F, Y212A
How it was run: as §1

B1: IL32_(2-15), synthetic peptide corresponding to the methionine excised N-terminus of IL32, residues 2-15 (peptide, UniProt P24001 2-15, looked up)
peptide: CFPKVLSDDMKKLK
notes: Interleukin 32 (IL32), residues 2-15, N-terminal Cys; also called IL32 peptide; source: synthetic peptide
Kd [1]: 37 µM | Kd [2]: 9.2 µM | Kd [3]: 4.2 µM | Kd [4]: 0.32 µM | Kd [5]: 29 µM

B2: RGS5_(2-15), synthetic peptide corresponding to the methionine excised N-terminus of RGS5, residues 2 to 15 (peptide, UniProt O15539 2-15, looked up)
peptide: CKGLAALPHSCLER
notes: Regulator of G-protein signalling 5 (RGS5), residues 2 to 15, N-terminal Cys; also called RGS5 peptide; source: synthetic peptide
Kd [1]: 47 µM | Kd [2]: 24 µM | Kd [3]: 1.7 µM | Kd [4]: 0.34 µM | Kd [5]: 72 µM
